Results on two substances are retold here after paper PMC8775495.

For one assay, the target named is WA20_H86K. The assay is described as follows: not stated; in solution; shown in Figure S1, whose legend was not shown.
The target in assay [1] is recombinant Agrocybe cylindracea galectin (Agrocybe cylindracea). The description is as above.

In general, stoichiometry N refers to the number of molecules, sites or subunits per partner or assembly. For WA20_H86K, the stoichiometry N with WA20_H86K is 2.

With “recombinant Agrocybe cylindracea galectin (natural protein)”, the stoichiometry N in assay [1] was 2.
